Data published in patent US20240110168.

Molecular target: T1, second subunit of the Jack Bean (Canavalia ensiformis) β-hexosaminidase
T1 chain: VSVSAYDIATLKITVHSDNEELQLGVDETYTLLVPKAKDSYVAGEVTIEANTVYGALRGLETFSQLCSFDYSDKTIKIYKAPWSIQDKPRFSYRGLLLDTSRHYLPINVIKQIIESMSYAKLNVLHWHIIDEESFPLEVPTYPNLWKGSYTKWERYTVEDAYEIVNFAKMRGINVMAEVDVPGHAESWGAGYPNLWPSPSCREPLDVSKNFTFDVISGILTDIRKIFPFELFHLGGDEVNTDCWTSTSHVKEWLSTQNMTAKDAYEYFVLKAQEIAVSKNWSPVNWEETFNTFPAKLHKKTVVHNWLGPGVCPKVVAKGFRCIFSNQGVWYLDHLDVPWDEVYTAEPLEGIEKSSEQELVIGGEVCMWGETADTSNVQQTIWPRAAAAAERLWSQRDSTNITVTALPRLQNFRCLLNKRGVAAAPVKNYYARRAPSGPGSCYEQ

B1: first subunit of the Jack Bean (Canavalia ensiformis) β-hexosaminidase (protein)
chain: SIIEPTESLTYLWPLPADFTSGDETLSVDPALTLSVAGNGGGSSILRDAFDRYRGIIFKHSSVGFS
modifications: not fully specified
β-hexosaminidase (b-Hex) activity: Dissociation of the two chains led to a complete loss of activity
